This data set concerns the molecule itself. Put plainly: SEC; gel filtration chromatography of purified His-RecN; single peak at a position indicating 308 kDa; column and buffer not told in the methods shown. (In general: Size exclusion chromatography separates by hydrodynamic size, large species first.)

B1: N-terminally hexahistidine-fused RecN (His-RecN), Escherichia coli (natural protein, E. coli, UniProt P05824 1-553, looked up)
chain: MLAQLTISNFAIVRELEIDFHSGMTVITGETGAGKSIAIDALGLCLGGRAEADMVRTGAARADLCARFSLKDTPAALRWLEENQLEDGHECLLRRVISSDGRSRGFINGTAVPLSQLRELGQLLIQIHGQHAHQLLTKPEHQKFLLDGYANETSLLQEMTARYQLWHQSCRDLAHHQQLSQERAARAELLQYQLKELNEFNPQPGEFEQIDEEYKRLANSGQLLTTSQNALALMADGEDANLQSQLYTAKQLVSELIGMDSKLSGVLDMLEEATIQIAEASDELRHYCDRLDLDPNRLFELEQRISKQISLARKHHVSPEALPQYYQSLLEEQQQLDDQADSQETLALAVTKHHQQALEIARALHQQRQQYAEELAQLITDSMHALSMPHGQFTIDVKFDEHHLGADGADRIEFRVTTNPGQPMQPIAKVASGGELSRIALAIQVITARKMETPALIFDEVDVGISGPTAAVVGKLLRQLGESTQVMCVTHLPQVAGCGHQHYFVSKETDGAMTETHMQSLNKKARLQELARLLGGSEVTRNTLANAKELLAA
notes: RecN, Escherichia coli; a fragment containing the recN gene from the pRecN plasmid cloned into pET15b; Copies: by gel filtration 'a homo-oligomeric complex, most likely a tetramer' (308 kDa); the discussion speaks of multimers larger than tetramers. pET15b may add linker residues between the His tag and RecN (surmised); also called E. coli RecN; source: E. coli BL21 (DE3), pET15b derivative, …
The term stoichiometry N denotes a count of units in the complex or per binding partner. Take B1: the “stoichiometry N” value is around 4.
